Assay results reported in patent US20240174992A1, “SPLIT MODIFIED DEHALOGENASE VARIANTS” (Promega Corporation, priority 2022, published 2024).

Legend:
Assay in all cases: cell-based or functional assay
[1] = molecular target: HaloTag[22-297](Q145H+P154R)-FRB (UniProt P42345)
HaloTag[22-297](M2F)-FRB = HaloTag[22-297](M2F)-FRB (UniProt P42345)
HT(146-297)-FRB = HT(146-297)-FRB (UniProt P42345)
HT(158-297)-FRB = HT(158-297)-FRB (UniProt P42345)
[196-297]-FRB = [196-297]-FRB (UniProt P42345)
[2] = molecular target: HT(23-297)-FRB fragment fused to LgBiT (UniProt P42345)
Sequence of HT(23-297)-FRB fragment fused to LgBiT (P42345 other isoform, or with tags, fused parts or gaps): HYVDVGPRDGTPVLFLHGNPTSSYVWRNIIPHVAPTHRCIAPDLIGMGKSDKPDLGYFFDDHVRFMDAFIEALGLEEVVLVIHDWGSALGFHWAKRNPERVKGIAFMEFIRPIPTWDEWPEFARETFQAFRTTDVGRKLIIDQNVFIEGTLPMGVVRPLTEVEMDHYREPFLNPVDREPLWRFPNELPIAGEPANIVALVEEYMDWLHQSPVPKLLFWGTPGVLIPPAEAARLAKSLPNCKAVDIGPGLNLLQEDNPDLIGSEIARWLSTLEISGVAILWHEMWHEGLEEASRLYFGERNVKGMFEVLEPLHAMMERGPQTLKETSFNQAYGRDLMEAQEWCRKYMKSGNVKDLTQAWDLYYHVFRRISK

Sequence of HaloTag[22-297](Q145H+P154R)-FRB (P42345 other isoform, or with tags, fused parts or gaps Q145H P154R Q145H P154R): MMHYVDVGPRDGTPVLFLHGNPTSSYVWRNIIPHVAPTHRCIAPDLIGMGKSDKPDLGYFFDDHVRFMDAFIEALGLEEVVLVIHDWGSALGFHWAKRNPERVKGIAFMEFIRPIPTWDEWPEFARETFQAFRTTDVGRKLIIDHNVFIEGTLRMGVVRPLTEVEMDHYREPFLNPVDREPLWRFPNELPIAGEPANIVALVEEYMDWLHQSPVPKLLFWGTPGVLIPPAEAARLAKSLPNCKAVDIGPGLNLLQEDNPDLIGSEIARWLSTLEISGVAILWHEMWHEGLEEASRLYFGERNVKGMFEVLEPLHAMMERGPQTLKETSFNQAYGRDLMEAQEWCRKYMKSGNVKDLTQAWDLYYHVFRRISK
Sequence of EGFP-FKBP-HaloTag[3-19] (P62942 other isoform, or with tags, fused parts or gaps): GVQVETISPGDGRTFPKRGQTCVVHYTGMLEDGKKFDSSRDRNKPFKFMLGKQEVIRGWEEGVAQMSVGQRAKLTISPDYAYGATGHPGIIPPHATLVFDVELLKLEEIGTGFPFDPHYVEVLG
Sequence of HaloTag[22-297](M2F)-FRB (P42345 other isoform, or with tags, fused parts or gaps): as the sequence (P42345 other isoform, or with tags, fused parts or gaps Q145H P154R Q145H P154R) above, with M2F, H145Q, R154P counted along it
Sequence of [1-195]-FKBP (P62942 other isoform, or with tags, fused parts or gaps): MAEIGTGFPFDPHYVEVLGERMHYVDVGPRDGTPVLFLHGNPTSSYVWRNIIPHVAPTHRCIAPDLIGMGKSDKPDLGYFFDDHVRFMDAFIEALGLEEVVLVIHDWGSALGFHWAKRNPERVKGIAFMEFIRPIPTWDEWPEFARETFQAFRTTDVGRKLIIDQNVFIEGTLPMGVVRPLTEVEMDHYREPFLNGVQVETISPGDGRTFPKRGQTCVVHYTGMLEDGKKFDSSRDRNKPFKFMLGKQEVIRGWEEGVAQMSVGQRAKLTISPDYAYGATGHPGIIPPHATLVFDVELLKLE
Sequence of [196-297]-FRB (P42345 other isoform, or with tags, fused parts or gaps limits assumed): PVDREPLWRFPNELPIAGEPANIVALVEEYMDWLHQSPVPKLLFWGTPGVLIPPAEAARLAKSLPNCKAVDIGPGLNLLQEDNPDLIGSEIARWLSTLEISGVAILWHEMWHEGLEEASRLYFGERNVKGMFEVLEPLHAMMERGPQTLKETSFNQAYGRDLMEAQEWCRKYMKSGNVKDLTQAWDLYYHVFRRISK
Sequence of FKBP-HT(1-33) fragment as SmBiT or HiBiT fragment fusions (P62942 other isoform, or with tags, fused parts or gaps): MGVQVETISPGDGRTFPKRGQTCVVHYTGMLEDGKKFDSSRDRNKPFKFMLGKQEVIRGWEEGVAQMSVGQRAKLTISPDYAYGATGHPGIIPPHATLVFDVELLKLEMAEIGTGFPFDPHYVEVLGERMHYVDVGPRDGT
Sequence of HT(158-297)-FRB (P42345 other isoform, or with tags, fused parts or gaps limits assumed): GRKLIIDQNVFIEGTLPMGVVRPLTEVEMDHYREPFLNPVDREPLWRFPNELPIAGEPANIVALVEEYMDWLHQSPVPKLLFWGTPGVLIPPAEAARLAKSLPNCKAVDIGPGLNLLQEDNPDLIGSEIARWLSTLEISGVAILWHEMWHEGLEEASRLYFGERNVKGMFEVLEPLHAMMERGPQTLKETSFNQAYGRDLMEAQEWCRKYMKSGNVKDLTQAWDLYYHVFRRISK
Sequence of HT(1-145)-FKBP (P62942 other isoform, or with tags, fused parts or gaps): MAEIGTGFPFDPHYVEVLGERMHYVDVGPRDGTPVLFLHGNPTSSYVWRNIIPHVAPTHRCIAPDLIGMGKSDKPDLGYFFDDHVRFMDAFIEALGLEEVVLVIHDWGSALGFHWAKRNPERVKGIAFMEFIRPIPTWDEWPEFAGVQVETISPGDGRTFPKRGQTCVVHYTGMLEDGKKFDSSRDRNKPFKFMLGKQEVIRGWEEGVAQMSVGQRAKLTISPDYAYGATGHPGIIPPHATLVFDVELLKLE
Sequence of HT(146-297)-FRB (P42345 other isoform, or with tags, fused parts or gaps limits assumed): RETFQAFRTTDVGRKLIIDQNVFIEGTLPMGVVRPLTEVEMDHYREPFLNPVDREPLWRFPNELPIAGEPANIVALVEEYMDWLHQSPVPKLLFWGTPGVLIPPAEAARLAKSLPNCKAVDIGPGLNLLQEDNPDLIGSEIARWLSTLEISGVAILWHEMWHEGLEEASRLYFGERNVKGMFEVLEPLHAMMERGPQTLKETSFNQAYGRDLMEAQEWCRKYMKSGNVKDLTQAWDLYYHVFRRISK
Sequence of HT(1-157)-FKBP (P62942 other isoform, or with tags, fused parts or gaps): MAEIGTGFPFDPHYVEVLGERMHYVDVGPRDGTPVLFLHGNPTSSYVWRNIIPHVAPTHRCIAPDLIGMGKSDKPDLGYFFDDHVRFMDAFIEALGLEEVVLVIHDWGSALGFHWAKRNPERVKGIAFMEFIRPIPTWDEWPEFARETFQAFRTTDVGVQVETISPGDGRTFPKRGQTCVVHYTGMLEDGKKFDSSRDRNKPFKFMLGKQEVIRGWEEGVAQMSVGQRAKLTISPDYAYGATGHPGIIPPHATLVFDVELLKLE

EGFP-FKBP-HaloTag[3-19] (from UniProt P62942 2-108)
S:B ratio in +rapamycin/-rapamycin conditions, live HeLa imaging [1]: 4 | fold response of JF646 fluorescence to rapamycin, live HeLa imaging [1]: 25 fold | signal-to-background ratio, complemented split HaloTag with rapamycin over the large HaloTag alone [1]: 5.7 | S:B ratio in +rapamycin/-rapamycin conditions, live HeLa imaging (HaloTag[22-297](M2F)-FRB): 6.7 | signal-to-background ratio, complemented split HaloTag with rapamycin over the large HaloTag alone (HaloTag[22-297](M2F)-FRB): 16

HT(1-145)-FKBP (from UniProt P62942 2-108)
fold increase of JF646 and JF585 fluorescence in live HeLa cells with 50 nM rapamycin (HT(146-297)-FRB): < 2 fold

HT(1-157)-FKBP (from UniProt P62942 2-108)
fold increase of JF646 and JF585 fluorescence in live HeLa cells with 50 nM rapamycin (HT(158-297)-FRB): < 2 fold

[1-195]-FKBP (from UniProt P62942 2-108)
fold increase in JF646 fluorescence with 50 nM rapamycin (E. coli lysates) ([196-297]-FRB): 4.7 fold | fold increase of JF646 and JF585 fluorescence in live HeLa cells with 50 nM rapamycin ([196-297]-FRB): < 2 fold

FKBP-HT(1-33) fragment as SmBiT or HiBiT fragment fusions (from UniProt P62942 1-108)
fold increase in NanoBiT luminescence on addition of rapamycin [2]: 100 to 250 fold
